Assay [1] has as its target T1, human transferrin receptor (hTfR) (Homo sapiens, UniProt P02786).
T1 construct: expressed in transfected cells; host or cells: chicken embryo fibroblasts (CEF+hTfR), stably transduced with a retroviral vector
The experiment in a line: Competition studies of phage binding to CEF+hTfR cells. Particulars: competitor added prior to phage, 1 hour at 4° C. As to the method:
Binding and Competition Studies: Purified phage populations were amplified and were verified to be homogenous through DNA sequencing. Cells were prepared for binding as was described for biopanning procedures. Preparations of plaque-purified and titered phage (1×10^11) were incubated in serum-free Opti-MEM on either CEF or CEF+hTfR cells at 4° C. for 1 hour. The cells were washed repeatedly with Opti-HEM and bound phage were eluted with low pH buffer and subsequently titered. In competition studies, holo-transferrin (Calbiochem, La Jolla, Calif.) or synthesized peptides were added to CEF+hTfR cells prior to addition of the phage for 1 hour at 4° C. Multiple trials were completed and average titers and standard deviations determined. The titers determined on CEF+hTfR cells were divided by the titers determined on CEF cells and multiplied by 100 to yield fold over control data points.
Due to a synthesis error, a peptide with the sequence HAIYPNH (Seq. ID No. 14) was also synthesized.

A further assay concerns CEF cells. The experiment in a line: Immunofluorescence binding assays on CEF cells. It is filed as cell-based, chicken. The note with it: 4° C. or 37° C., CEF cells lack the hTfR.
The next assay concerns CEF+hTfR cells. Nature of the assay: Immunofluorescence binding and internalization on CEF+hTfR cells. In kind it is cell-based, chicken. The note with it: for endocytosis into CEF+hTfR cells (fluorescence after low pH buffer wash): 37° C., low pH buffer wash before fixation. As to the method: Immunofluorescence: CEF+hTfR cells were grown on glass coverslips to 50% to 75% confluence. The coverslips were washed and incubated in serum-free Opti-MEM media at 37° C. for 1 hour. […] Cells were washed with Opti-MEM, then fixed in 3% formaldehyde for 30 minutes at 4° C. Alternatively, the cells were acid-washed with 0.2 M glycine-HCl, Ph 2.2, prior to fixation. A GFP monoclonal antibody (Clontech) was used in conjunction with an Oregon-Green Goat Anti-Mouse (Molecular Probes) to augment GFP fluorescence. All slides were counterstained with DAPI (2(4Amidinophenyl)-6indole carbamidinedihydrochioride) (Sigma). The microscopic slides were mounted in Prolong™ antifade medium (Molecular Probes). Images were captured on an AX70 microscope with Olympus Camera (Olympus, Melville, N.Y.) and analyzed with ESPRIT software (Life Science Resources, Cambridge, England). Final figures were assembled using Microsoft Power Point (Microsoft Corp., Redmond, Wash.).
To evaluate the sufficiency of capacity of the peptides to mediate uptake of carrier protein, GFP fusion proteins were prepared. Immunofluorescence was used to determine if the GFP-peptides fusion constructs were internalized using the following assay. GFP-peptide constructs were cloned with a C-terminal peptide addition of either HAIYPRH (Seq. ID No. 1) (GFP-HAIYPRH) or […] (Seq. ID No. 2) (GFP-[…]). These constructs were expressed and purified to greater than 95% by Coomassie staining. Purified proteins were applied to CEF+hTfR cells at 4° C. (which prevents endocytosis) or at 37° C. […] This acid wash determined whether the protein was endocytosed by removing proteins bound at the cell surface. […]
Immunofluorescence images of the localization of various proteins applied to CEF+hTfR cells at either 4° C. or 37° were studied. […] The total fluorescence shown could result from both cell surface and endocytosed proteins.
The cells that had undergone a low pH buffer wash to enable identification of proteins that had been endocytosed were evaluated.

Assay [2] addresses T1, human transferrin receptor (hTfR). The experiment in a line: Scatchard analysis of 125I-labelled protein binding to CEF+hTfR cells. Particulars: CEF+hTfR cells on ice, 1 hour, read-out: binding affinity (Scatchard).
Procedure: 1M NaOH was added to lyse the cells for determining the bound fraction. Both unbound and bound fractions were counted in a gamma counter and binding affinities were determined using Scatchard analysis.
Serial dilutions of labelled proteins were incubated with CEF+hTfR cells on ice in PBS-0.1% BSA in duplicate wells. After 1 hour, the unbound fraction was removed and cells were washed four times. Cells were removed from the well with 1N NaOH. The unbound and bound fractions were counted in a gamma counter and fmoles of bound and unbound were calculated. Scatchard plots were derived by plotting bound versus bound/free of an average value generated by the duplicate wells. A best of fit line was generated using the Excel program (Microsoft Corp.) and the binding affinities were determined by the slope of the plotted lines.

The values that follow come from patent US6743893B2, “Receptor-mediated uptake of peptides that bind the human transferrin receptor” (The UAB Research Foundation, priority 2000, dated 2004).

T1 sequence (P02786 whole entry): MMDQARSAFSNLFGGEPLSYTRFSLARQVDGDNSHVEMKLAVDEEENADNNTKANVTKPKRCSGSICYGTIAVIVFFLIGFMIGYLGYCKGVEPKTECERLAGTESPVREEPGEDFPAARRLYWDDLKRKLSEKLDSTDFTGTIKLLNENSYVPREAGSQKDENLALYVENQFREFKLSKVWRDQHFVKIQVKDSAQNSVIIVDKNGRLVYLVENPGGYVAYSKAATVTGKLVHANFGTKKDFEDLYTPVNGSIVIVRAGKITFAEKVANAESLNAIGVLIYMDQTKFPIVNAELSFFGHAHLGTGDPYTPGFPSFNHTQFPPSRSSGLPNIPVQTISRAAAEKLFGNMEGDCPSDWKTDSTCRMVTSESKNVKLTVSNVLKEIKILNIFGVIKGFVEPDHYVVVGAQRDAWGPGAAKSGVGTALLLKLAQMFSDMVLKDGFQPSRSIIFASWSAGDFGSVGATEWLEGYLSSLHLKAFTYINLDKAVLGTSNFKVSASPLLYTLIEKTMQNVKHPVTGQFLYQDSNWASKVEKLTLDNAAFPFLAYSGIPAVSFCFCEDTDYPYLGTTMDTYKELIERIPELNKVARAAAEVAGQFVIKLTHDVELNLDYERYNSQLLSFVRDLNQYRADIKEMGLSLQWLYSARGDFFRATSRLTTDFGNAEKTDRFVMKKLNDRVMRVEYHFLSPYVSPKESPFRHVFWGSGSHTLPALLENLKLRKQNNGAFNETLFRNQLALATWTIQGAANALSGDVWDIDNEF

Consider “HAIYPNH [peptide synthesized due to a synthesis error, asparagine in place of arginine]”, for which the “competition of HAIYPRH phage binding to CEF+hTfR cells by added peptide or Tf” value (“competition of HAIYPRH phage binding” below) in assay [1] is listed as “no effect”.
In the case of “Tf: transferrin from human serum, native ligand of hTfR”, the “binding or internalization on CEF cells” value in the assay on CEF cells is given as “neither of the GFP fusion proteins or transferrin bound or internalized”.
For the substance “wtGFP: purified wild-type green fluorescent protein, negative control”, the “localization/binding of protein on CEF+hTfR cells without acid wash” value with CEF+hTfR cells (37° C. for one hour, no acid wash) is reported as “minimal binding”. Further, the “endocytosis into CEF+hTfR cells (fluorescence after low pH buffer wash)” value in the assay with CEF+hTfR cells is “unable to be endocytosed”. In addition, the Kd in assay [2] is 240 µM.
Regarding HAIYPRH, in assay [1], the “competition of HAIYPRH phage binding” value is reported as “competed away to background levels” and the “competition of THRPPMWSPVWP phage binding to CEF+hTfR cells by added peptide or Tf” value is reported as “failed to significantly compete”.
Take PWRPSHPVWMPT: the “competition of THRPPMWSPVWP phage binding to CEF+hTfR cells by added peptide or Tf” value in assay [1] was “not by the scrambled 12-mer sequence”.
For the substance “Texas-Red Tf: Tf conjugated to the Texas-Red fluorochrome, positive control”, the “endocytosis into CEF+hTfR cells (fluorescence after low pH buffer wash)” value with CEF+hTfR cells was “readily endocytosed”.
For the substance THRPPMWSPVWP, in assay [1], the “competition of HAIYPRH phage binding” value is on record as “failed to significantly compete”.
